Data as given in article PMC4254552 (Developmental cell, 2014).

Tests used:
HIM-3-6His = target: T1, HIM-3-6His (C. elegans, UniProt G5EBG0 1-291)
T1 sequence (looked up): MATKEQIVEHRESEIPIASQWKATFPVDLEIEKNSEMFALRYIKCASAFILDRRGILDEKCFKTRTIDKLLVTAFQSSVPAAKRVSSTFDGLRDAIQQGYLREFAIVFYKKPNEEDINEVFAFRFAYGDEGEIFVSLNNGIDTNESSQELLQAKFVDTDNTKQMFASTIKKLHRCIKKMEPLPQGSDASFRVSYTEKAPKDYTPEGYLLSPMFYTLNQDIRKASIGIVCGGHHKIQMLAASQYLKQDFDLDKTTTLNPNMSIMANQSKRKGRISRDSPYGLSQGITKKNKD

[1] = target: T2, HIM-3 part of the chimeric protein HIM-3:HTP-3 motif #4 (C. elegans, UniProt G5EBG0 1-276); experiment: crystal structure
T2 sequence (looked up): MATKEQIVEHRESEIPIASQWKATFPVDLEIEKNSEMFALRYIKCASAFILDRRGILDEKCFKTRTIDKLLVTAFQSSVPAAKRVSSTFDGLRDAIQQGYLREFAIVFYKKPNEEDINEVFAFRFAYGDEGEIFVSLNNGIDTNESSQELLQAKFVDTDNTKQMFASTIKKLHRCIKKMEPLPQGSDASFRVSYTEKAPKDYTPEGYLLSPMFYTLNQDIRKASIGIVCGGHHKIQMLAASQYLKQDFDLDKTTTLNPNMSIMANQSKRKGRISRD

B1: HTP-1 (untagged, co-expressed) (natural protein, C. elegans, UniProt Q20305 1-352, looked up)
chain: MAPLETIYDESLNKSADSIDDKKWSKLFPRIVSDPDRSSNFMTRAIYVAFSAVLRNRNILGQEYFTKNYITEKLKCMTLCFRNPRSNQIAQLLRNAGDATKDGFLKEVSLVITNNEGDLEAIEVFSMKFIYFENGGVVARLSTDKNGQEDPHFAKLAQLVYEGGDSVRDQMVTIVRSVQFLCTKVLEPLPEEFTANFRLEYTNDAPSNFRIDGFEDSSTFYTLPDDIQSATIGHLRPGCHAANMECWSMLMSDSYEAELTLKRHLDKVSDRHGFNPVNVLYKSFNSEDSDTSLSQATTESVNDQGGNETSPVDDITESLEKAQMSPIQTRPTTRRGADGSKTRSSPYSRSCK
B1 was tested, and the “stoichiometry N” value (HIM-3-6His) was 1 HTP-1 per HIM-3.

B2: HTP-2 (co-expressed; tag not told) (natural protein, C. elegans, UniProt Q95XC8 1-352, looked up)
chain: MAPLENNYNESLNKSKDAIDDKTWSKLFPSIVSDPDRSSNFMIRAIYVVFSAVLRQRNILEKEYFSKNYITENLSCMTLSFKNLRAHQIAQLLRAAGDATKDGFLKEISLVVTEHDGDVEAIEVFSMKFIYFENGGVVARLSTDNNDQEDPHFAELAQLRYEGAESVRDQMVTIVRSVQFLCTKVLEPLPAEFTANFRLKYTNDAPSNFRIDGFDDSSTFYTLPDGIQSVTIGHLRPGHHAAHMQCWSKSMSDSYAAELTLKGHLDKVSDMYAFNPVNVLYKSFNSEDTDPGLSQDTTESANDQGGNVTSPVDNITDSLEKTQMSPIKMRPTTRRGADDSKTRSSPYSRSRK
B2 was tested, and the “stoichiometry N” value (HIM-3-6His) was 1 HTP-2 per HIM-3.

B3: HTP-3 motif #4 (residues 649-663) as placed in the HIM-3 chimera (peptide, UniProt O01820 649-663, looked up)
chain: RHYGRVSSILDVAGS
B3: binds [1].
